{"source": "paper PMC10031466", "about": "(The Journal of Biological Chemistry, 2023)", "target": "the molecule itself", "assay": "crystal structure; microbatch crystallization of His-SUMO tagged P. shigelloides NagK (5 mg/ml), Morpheus I screen with matrix microseeding; apo structure PDB 7P7I, 2 protein monomers in the a.u."}
{"protein": "N-acetylglucosamine kinase (NagK) from Plesiomonas shigelloides (enzyme, N-acetylglucosamine kinase NagK of Plesiomonas shigelloides, codon-optimized nagK gene in pOPINS3C; also called PsNagK; P. shigelloides NagK; source: E. coli BL21 (DE3), purified (HisTrap, Superdex 200 size exclusion); not shown: polyhistidine, N-terminal, kept; SUMO, N-terminal, kept) MYYGFDIGGTKIEFGAFDADLVRVARERVATPTESYAAFLDAIVTLVNNADAEFGVKGTVGIGIPGIADVETGKLLTSNIPAAMGHTLQRDLEERLQRPVKIENDANCFALSEAWDEDLRGEPSVLGLILGTGVGGGLIFNGKVHSGRANIAGEIGHTRLPYDALKLLGMENAPIFPCGCKNSGCIDNYLSGRGFEQLYDHYFSEKLSAPEIIAHYEQGERRAVQHVERFMELLAICLANIFTCLDPHVVVLGGGLSNFELIYQELPKRLPAHLLHVAKLPKIIKARHGDAGGVRGAAFLNL", "values": [{"measurement": "stoichiometry N", "result": 2}]}
